Reference: paper PMC8160579 (The Journal of Cell Biology, 2021)
Where no end group is shown, it is not given here.

B1: biotinylated SAMM50 LIR peptide (residues 18–41) (peptide)
peptide: DFGGLGEEAEFVEVEPEAKQEILE
modifications: also: biotinylated, position not given here

Key:
LC3C, purified = LC3C, purified (human, UniProt Q9BXW4 1-126); test: BLI
GABARAPL1, purified = GABARAPL1, purified (human, UniProt Q9H0R8 1-117); test: BLI
GABARAP, purified = GABARAP, purified (human, UniProt O95166 1-117); test: BLI
Chain of GABARAP, purified (O95166 whole entry): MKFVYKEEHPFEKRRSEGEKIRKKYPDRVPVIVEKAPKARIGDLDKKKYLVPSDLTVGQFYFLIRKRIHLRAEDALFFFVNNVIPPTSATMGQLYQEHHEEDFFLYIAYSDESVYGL

LC3A, purified = LC3A, purified (human, UniProt Q9H492 1-121); test: BLI
GST-GABARAP Y49A = GST-GABARAP Y49A (human, UniProt O95166 1-117, Y49A); test: pull-down
[1] = molecular target: B1; test: BLI

Chain of GABARAPL1, purified (Q9H0R8 whole entry): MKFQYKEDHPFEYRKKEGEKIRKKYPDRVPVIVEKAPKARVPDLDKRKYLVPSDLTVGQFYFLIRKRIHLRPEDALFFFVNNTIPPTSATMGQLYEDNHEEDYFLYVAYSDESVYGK
Chain of LC3C, purified (Q9BXW4 1-126): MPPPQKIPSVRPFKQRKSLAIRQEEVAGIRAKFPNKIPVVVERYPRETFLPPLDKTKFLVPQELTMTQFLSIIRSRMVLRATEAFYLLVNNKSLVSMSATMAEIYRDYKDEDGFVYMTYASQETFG

B1
Kd (LC3C, purified): 57.2 µM
Kd (GABARAPL1, purified): 10 µM
Kd (GABARAP, purified): 23.9 µM
Kd (LC3A, purified): 27.6 µM

B2: Myc-SAMM50 WT, in vitro translated (natural protein)
chain: MGTVHARSLEPLPSSGPDFGGLGEEAEFVEVEPEAKQEILENKDVVVQHVHFDGLGRTKDDIIICEIGDVFKAKNLIEVMRKSHEAREKLLRLGIFRQVDVLIDTCQGDDALPNGLDVTFEVTELRRLTGSYNTMVGNNEGSMVLGLKLPNLLGRAEKVTFQFSYGTKETSYGLSFFKPRPGNFERNFSVNLYKVTGQFPWSSLRETDRGMSAEYSFPIWKTSHTVKWEGVWRELGCLSRTASFAVRKESGHSLKSSLSHAMVIDSRNSSILPRRGALLKVNQELAGYTGGDVSFIKEDFELQLNKQLIFDSVFSASFWGGMLVPIGDKPSSIADRFYLGGPTSIRGFSMHSIGPQSEGDYLGGEAYWAGGLHLYTPLPFRPGQGGFGELFRTHFFLNAGNLCNLNYGEGPKAHIRKLAECIRWSYGAGIVLRLGNIARLELNYCVPMGVQTGDRICDGVQFGAGIRFL
reduction in binding relative to WT GABARAP (GST-GABARAP Y49A): > 60%

B3: GABARAP Q59E (natural protein)
chain: MKFVYKEEHPFEKRRSEGEKIRKKYPDRVPVIVEKAPKARIGDLDKKKYLVPSDLTVGEFYFLIRKRIHLRAEDALFFFVNNVIPPTSATMGQLYQEHHEEDFFLYIAYSDESVYGL
fold reduction of binding relative to WT GABARAP [1]: > 3.5 fold
